Measured values from paper PMC8263008, “Inhibition of Fibrinolysis by Streptococcal Phage LysinSM1” (mBio, 2021).

B1: human plasminogen (natural protein, UniProt P00747 20-810, looked up)
chain: EPLDDYVNTQGASLFSVTKKQLGAGSIEECAAKCEEDEEFTCRAFQYHSKEQQCVIMAENRKSSIIIRMRDVVLFEKKVYLSECKTGNGKNYRGTMSKTKNGITCQKWSSTSPHRPRFSPATHPSEGLEENYCRNPDNDPQGPWCYTTDPEKRYDYCDILECEEECMHCSGENYDGKISKTMSGLECQAWDSQSPHAHGYIPSKFPNKNLKKNYCRNPDRELRPWCFTTDPNKRWELCDIPRCTTPPPSSGPTYQCLKGTGENYRGNVAVTVSGHTCQHWSAQTPHTHNRTPENFPCKNLDENYCRNPDGKRAPWCHTTNSQVRWEYCKIPSCDSSPVSTEQLAPTAPPELTPVVQDCYHGDGQSYRGTSSTTTTGKKCQSWSSMTPHRHQKTPENYPNAGLTMNYCRNPDADKGPWCFTTDPSVRWEYCNLKKCSGTEASVVAPPPVVLLPDVETPSEEDCMFGNGKGYRGKRATTVTGTPCQDWAAQEPHRHSIFTPETNPRAGLEKNYCRNPDGDVGGPWCYTTNPRKLYDYCDVPQCAAPSFDCGKPQVEPKKCPGRVVGGCVAHPHSWPWQVSLRTRFGMHFCGGTLISPEWVLTAAHCLEKSPRPSSYKVILGAHQEVNLEPHVQEIEVSRLFLEPTRKDIALLKLSSPAVITDKVIPACLPSPNYVVADRTECFITGWGETQGTFGAGLLKEAQLPVIENKVCNRYEFLNGRVQSTELCAGHLAGGTDSCQGDSGGPLVCFEKDKYILQGVTSWGLGCARPNKPGVYVRVSRFVTWIEGVMRNN
notes: plasminogen, human; also called purified plasminogen; recombinant human plasminogen

Columns and labels:
[1] = biological target: purified human fibrinogen (human) (UniProt P02671); assay: SPR; Reichert-4 SR7500DC; human fibrinogen (0.1 μM, sodium acetate pH 5.5) covalently immobilised on a PEG gold chip; analytes in PBS, 30 μl/min, 3 min association and dissociation; KD from response at equilibrium against concentration
[2] = biological target: MalE-fibrinogen Aα534-610 (variant 8) (human); assay: SPR; lysinSM1, lysin102-198 or plasminogen on recombinant variant 8 (Aα534-610); otherwise as for fibrinogen
[3] = biological target: purified human fibrinogen (human) (UniProt P02671); assay: ELISA; competition: immobilised fibrinogen (0.1 μM), 0 to 100 μM lysinSM1, lysin102-198 or lysin1-102, and 100 nM plasminogen; bound plasminogen detected with anti-plasminogen antibody
[4] = biological target: MalE-fibrinogen Aα534-610 (variant 8) (human); assay: ELISA; fibrinogen Aα variants (0.1 μM in PBS) immobilised in 96-well plates; FLAG-lysin or plasminogen in PBS-T over a range of concentrations, 1 h 37°C; anti-FLAG or anti-plasminogen; non-linear regression, apparent KD
[5] = biological target: MalE-fibrinogen Aα248-376 (variant 5) (human); assay: as above
[6] = biological target: T1, purified human fibrinogen (human, UniProt P02671 36-866; P02675 45-491; P02679 27-453, plasma fibrinogen hexamer (AαBβγ)2, 29 disulfides, glycosylated; fibrinopeptides A and B present; Aα taken as the circulating 610-residue form, Bβ starts at pyroGlu, γ as the major γA form (411 aa)); assay: SPR; plasminogen (100 nM) over immobilised fibrinogen after PBS, and again after bound lysinSM1 was removed with glycine buffer pH 2.0; conditions: both partners purified
[7] = biological target: T1, purified human fibrinogen; assay: SPR; Reichert-4 SR7500DC; human fibrinogen (0.1 μM, sodium acetate pH 5.5) covalently immobilised on a PEG gold chip; analytes in PBS, 30 μl/min, 3 min association and dissociation; KD from response at equilibrium against concentration; conditions: both partners purified

purified human fibrinogen (human), sequence (P02671 36-866, chain 1 of 3): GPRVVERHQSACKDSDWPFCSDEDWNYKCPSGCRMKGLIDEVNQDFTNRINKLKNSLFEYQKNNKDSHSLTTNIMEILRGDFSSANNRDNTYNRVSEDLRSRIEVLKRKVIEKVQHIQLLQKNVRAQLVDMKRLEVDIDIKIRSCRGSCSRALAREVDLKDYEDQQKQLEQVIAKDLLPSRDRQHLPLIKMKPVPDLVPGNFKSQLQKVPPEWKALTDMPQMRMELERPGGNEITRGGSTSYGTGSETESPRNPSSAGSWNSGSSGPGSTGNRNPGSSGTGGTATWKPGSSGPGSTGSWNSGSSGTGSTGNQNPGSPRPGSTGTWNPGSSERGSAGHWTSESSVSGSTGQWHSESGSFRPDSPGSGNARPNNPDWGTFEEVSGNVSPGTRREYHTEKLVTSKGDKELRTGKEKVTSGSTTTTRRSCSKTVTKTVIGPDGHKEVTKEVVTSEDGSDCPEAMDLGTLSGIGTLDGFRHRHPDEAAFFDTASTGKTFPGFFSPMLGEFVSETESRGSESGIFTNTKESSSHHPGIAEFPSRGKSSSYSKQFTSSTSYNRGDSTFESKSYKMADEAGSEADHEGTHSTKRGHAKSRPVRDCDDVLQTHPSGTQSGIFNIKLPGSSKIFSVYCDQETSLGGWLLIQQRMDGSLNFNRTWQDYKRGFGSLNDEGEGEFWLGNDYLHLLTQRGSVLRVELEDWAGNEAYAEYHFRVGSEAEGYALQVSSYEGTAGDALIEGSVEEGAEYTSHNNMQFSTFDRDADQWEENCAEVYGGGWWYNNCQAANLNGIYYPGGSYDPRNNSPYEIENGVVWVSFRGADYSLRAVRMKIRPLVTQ
purified human fibrinogen (human), sequence (P02675 45-491, chain 2 of 3, further chain): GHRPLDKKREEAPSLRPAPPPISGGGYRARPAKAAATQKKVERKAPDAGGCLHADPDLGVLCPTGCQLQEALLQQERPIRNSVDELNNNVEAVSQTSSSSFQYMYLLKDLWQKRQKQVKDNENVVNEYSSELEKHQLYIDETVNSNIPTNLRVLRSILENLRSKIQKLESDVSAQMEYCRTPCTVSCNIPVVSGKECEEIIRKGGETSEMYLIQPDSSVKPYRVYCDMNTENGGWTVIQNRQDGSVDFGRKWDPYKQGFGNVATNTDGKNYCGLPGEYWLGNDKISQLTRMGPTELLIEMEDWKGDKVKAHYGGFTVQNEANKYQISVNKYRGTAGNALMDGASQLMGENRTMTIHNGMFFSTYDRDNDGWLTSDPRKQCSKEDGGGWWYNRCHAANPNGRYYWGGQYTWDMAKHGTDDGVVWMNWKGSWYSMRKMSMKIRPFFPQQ
purified human fibrinogen (human), sequence (P02679 27-453, chain 3 of 3, further chain): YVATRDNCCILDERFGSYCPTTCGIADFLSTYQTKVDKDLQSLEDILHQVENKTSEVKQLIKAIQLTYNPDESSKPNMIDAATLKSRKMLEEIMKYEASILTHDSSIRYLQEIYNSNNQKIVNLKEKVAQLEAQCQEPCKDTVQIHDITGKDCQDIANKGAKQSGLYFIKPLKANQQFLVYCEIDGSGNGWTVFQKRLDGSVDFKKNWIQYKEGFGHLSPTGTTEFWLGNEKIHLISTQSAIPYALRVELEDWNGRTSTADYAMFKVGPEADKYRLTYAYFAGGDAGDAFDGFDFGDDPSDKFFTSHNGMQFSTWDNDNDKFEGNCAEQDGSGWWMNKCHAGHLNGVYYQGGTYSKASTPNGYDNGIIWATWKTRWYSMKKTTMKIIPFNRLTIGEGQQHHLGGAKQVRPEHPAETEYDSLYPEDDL
T1 sequence (P02671 36-866, chain 1 of 3): as the sequence (P02671 36-866, chain 1 of 3) above
T1 sequence (P02675 45-491, chain 2 of 3): as the sequence (P02675 45-491, chain 2 of 3, further chain) above
T1 sequence (P02679 27-453, chain 3 of 3): as the sequence (P02679 27-453, chain 3 of 3, further chain) above

Row | Molecule | Kd [1] | Kd [2] | percent inhibition of plasminogen binding to immobilised fibrinogen [3] | Kd [4] | Kd [5] | KD after bound lysinSM1 was removed with glycine buffer pH 2.0 [6] | Kd [6] | Kd [7]
1 | recombinant FLAG-tagged lysinSM1 (natural protein) | 31.5 µM | 32.3 µM | > 75% |  |  |  |  | 
2 | FLAG-tagged lysin102-198 (domain or fragment) | 23.2 µM | 17.3 µM | > 75% | 48 µM |  |  |  | 
3 | B1 |  | 17.2 µM |  | 18 µM | 85 µM | 1.68e-05 M | 19.2 µM | 10.4 µM
